Laboratory results as given in patent EP0696198B1.

Experiments:
Factor Xa [1] = assay: cell-based or functional assay
Factor Xa [2] = assay: modified prothrombinase complex assay (50 pM FXa, 1.35 µM prothrombin)
Factor Xa [3] = assay: reconstituted prothrombinase complex assay (250 pM FXa, 2.67 µM prothrombin), thrombin generation

IC50, prothrombinase complex assay (thrombin generation) (Factor Xa [1]): 0.19 nM
Ki (Factor Xa [2]): 0.12 nM
Ki (Factor Xa [3]): 0.072 nM
Substance: naturally occurring FXa inhibitor isolated from dilute leech saliva (DLS) of Hirudo medicinalis
